“And” between values parts separate entries of the source, which are not always exact repeats. Equal values may be shown once.
B17: TTD of UHRF1 (residues 134–285) (domain or fragment, human, UniProt Q96T88 134-285, looked up)
chain: LYKVNEYVDARDTNMGAWFEAQVVRVTRKAPSRDEPCSSTSRPALEEDVIYHVKYDDYPENGVVQMNSRDVRARARTIIKWQDLEVGQVVMLNYNPDNPKERGFWYDAEISRKRETRTARELYANVVLGDDSLNDCRIIFVDEVFKIERPGE
notes: 15N- or 13C/15N-labelled for the NMR work; also called tandem Tudor domain; the isolated TTD

Key:
Conditions in all cases: both partners purified
[1] = target: B17; experiment: NMR solution structure; TTD/Spacer (627–674) 1:1.2, PBS, 0.01% NaN3, pH 7.4, 10% D2O, 20 °C
[2] = target: T1, SRA–Spacer of UHRF1 (residues 414–674) (human, UniProt Q96T88 414-674); experiment: ITC; 0.05 mM protein in the cell, 0.5 mM protein or peptide in the syringe, iTC200, 18 °C, 10 mM HEPES pH 8.0, 100 mM NaCl
T1 sequence (looked up): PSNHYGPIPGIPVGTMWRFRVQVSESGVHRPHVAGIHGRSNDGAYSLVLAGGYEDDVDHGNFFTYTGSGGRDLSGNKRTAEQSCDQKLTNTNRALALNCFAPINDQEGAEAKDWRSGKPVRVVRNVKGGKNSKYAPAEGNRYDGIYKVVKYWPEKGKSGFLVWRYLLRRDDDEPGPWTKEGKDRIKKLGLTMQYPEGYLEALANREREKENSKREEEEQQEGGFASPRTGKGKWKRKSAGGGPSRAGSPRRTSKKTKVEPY

[3] = target: B17; experiment: ITC; competition ITC: protein pre-incubated with the competing peptide or protein (1:2 molar ratio if not specified) for 10 min, then as a3
[4] = target: B17; experiment: ITC; 0.05 mM protein in the cell, 0.5 mM protein or peptide in the syringe, iTC200, 18 °C, 10 mM HEPES pH 8.0, 100 mM NaCl
[5] = target: T2, TTD–PHD of UHRF1 (residues 134–366) (human, UniProt Q96T88 134-366); experiment: as above
T2 sequence (looked up): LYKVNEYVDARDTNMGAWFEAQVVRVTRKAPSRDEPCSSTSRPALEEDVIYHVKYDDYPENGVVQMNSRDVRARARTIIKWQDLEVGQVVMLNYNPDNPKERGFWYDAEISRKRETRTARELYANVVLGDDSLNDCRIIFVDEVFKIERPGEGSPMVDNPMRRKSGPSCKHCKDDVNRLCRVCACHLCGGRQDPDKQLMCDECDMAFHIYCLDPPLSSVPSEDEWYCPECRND

TTD–PHD R295D/R296D = target: T3, TTD–PHD R295D/R296D (human, UniProt Q96T88 134-366, R295D | R296D); experiment: as above
T3 sequence (looked up): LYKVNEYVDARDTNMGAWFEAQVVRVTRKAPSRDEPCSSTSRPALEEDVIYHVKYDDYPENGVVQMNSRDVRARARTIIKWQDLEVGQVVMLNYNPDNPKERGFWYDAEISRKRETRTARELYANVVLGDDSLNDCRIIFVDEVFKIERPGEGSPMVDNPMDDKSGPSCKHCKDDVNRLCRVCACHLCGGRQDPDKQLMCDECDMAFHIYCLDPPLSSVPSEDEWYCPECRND

[6] = target: T4, SRA of UHRF1 (residues 414–617) (human, UniProt Q96T88 414-617); experiment: as above
T4 construct: human UHRF1, SRA domain, residues 414–617; also called SET-and-RING-associated domain
T4 sequence (looked up): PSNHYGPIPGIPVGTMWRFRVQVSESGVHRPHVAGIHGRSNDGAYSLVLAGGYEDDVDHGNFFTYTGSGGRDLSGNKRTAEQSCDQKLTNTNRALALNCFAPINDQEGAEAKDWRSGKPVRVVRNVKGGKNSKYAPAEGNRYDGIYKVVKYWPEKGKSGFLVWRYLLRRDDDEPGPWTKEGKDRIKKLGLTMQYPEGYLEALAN

[7] = target: T1, SRA–Spacer of UHRF1 (residues 414–674); experiment: pull-down; GST pull-down: 15 μg GST-tagged protein with 40 μg recombinant protein in 500 μl 20 mM HEPES-NaOH pH 8.0, 100 mM NaCl, 5% glycerol, 0.1% Triton X-100, 4 °C, glutathione resin, Coomassie staining; some panels with increasing hm-DNA

B1: truncated Spacer (residues 627–674) (domain or fragment, human, UniProt Q96T88 627-674, looked up)
chain: REEEEQQEGGFASPRTGKGKWKRKSAGGGPSRAGSPRRTSKKTKVEPY
notes: modified pRSF-Duet-1 vector; unlabelled or 15N-labelled in the NMR samples; residues 643–655 were built in the model
**Q.** Does B1 bind [1]?
**A.** binds

B2: replication focus targeting sequence (RFTS) of DNMT1 (domain or fragment, UniProt P26358 400-533, looked up)
chain: EALPQHKLTCFSVYCKHGHLCPIDTGLIEKNIELFFSGSAKPIYDDDPSLEGGVNGKNLGPINEWWITGFDGGEKALIGFSTSFAEYILMDPSPEYAPIFGLMQEKIYISKIVVEFLQSNSDSTYEDLINKIET
notes: DNMT1, RFTS domain; also called RFTS^DNMT1
**Q.** Which Kd [2] does the source give for B2 here?
**A.** 7.09 µM

B3: Spacer of UHRF1 (residues 587–674) (domain or fragment, human, UniProt Q96T88 587-674, looked up)
chain: PGPWTKEGKDRIKKLGLTMQYPEGYLEALANREREKENSKREEEEQQEGGFASPRTGKGKWKRKSAGGGPSRAGSPRRTSKKTKVEPY
notes: also called the Spacer; Spacer peptide
**Q.** What does the source list for B3?
**A.** fold decrease in binding affinity in the presence of the Linker [3]: 2 fold; Kd [4]: 1.48 µM and 1.59 µM; stoichiometry N [4]: 1; Kd [5]: 10.7 µM; Kd (TTD–PHD R295D/R296D): 2.69 µM

B4: Spacer S651D (domain or fragment, human, UniProt Q96T88 587-674, looked up)
chain: PGPWTKEGKDRIKKLGLTMQYPEGYLEALANREREKENSKREEEEQQEGGFASPRTGKGKWKRKDAGGGPSRAGSPRRTSKKTKVEPY
**Q.** Does B4 bind [4]?
**A.** binds

B5: Spacer R649A (domain or fragment, human, UniProt Q96T88 587-674, looked up)
chain: PGPWTKEGKDRIKKLGLTMQYPEGYLEALANREREKENSKREEEEQQEGGFASPRTGKGKWKAKSAGGGPSRAGSPRRTSKKTKVEPY
**Q.** With B5 as the binder, how does the “fold decrease in binding affinity against the wild-type Spacer” value [4] read?
**A.** ~13 fold

B6: Spacer K648D (domain or fragment, human, UniProt Q96T88 587-674, looked up)
chain: PGPWTKEGKDRIKKLGLTMQYPEGYLEALANREREKENSKREEEEQQEGGFASPRTGKGKWDRKSAGGGPSRAGSPRRTSKKTKVEPY
**Q.** Does B6 bind [4]?
**A.** binds

B7: Spacer S666D (domain or fragment, human, UniProt Q96T88 587-674, looked up)
chain: PGPWTKEGKDRIKKLGLTMQYPEGYLEALANREREKENSKREEEEQQEGGFASPRTGKGKWKRKSAGGGPSRAGSPRRTDKKTKVEPY
**Q.** Does B7 bind [4]?
**A.** binds

B8: Spacer S639D (domain or fragment, human, UniProt Q96T88 587-674, looked up)
chain: PGPWTKEGKDRIKKLGLTMQYPEGYLEALANREREKENSKREEEEQQEGGFADPRTGKGKWKRKSAGGGPSRAGSPRRTSKKTKVEPY
**Q.** Does B8 bind [4]?
**A.** binds

B9: Spacer^Δ642–651 (domain or fragment, human, UniProt Q96T88 587-674, looked up)
chain: PGPWTKEGKDRIKKLGLTMQYPEGYLEALANREREKENSKREEEEQQEGGFASPRAGGGPSRAGSPRRTSKKTKVEPY
**Q.** Does B9 bind [4]?
**A.** binds

**Q.** Does TGKGKWKRKSAGGGPSRAGSPRR (peptide, UniProt Q96T88 642-664, looked up) [unmodified peptide of Spacer^642–664] bind [4]?
**A.** binds

B10: PHD of UHRF1 (residues 307–366) (domain or fragment, human, UniProt Q96T88 307-366, looked up)
chain: DDVNRLCRVCACHLCGGRQDPDKQLMCDECDMAFHIYCLDPPLSSVPSEDEWYCPECRND
notes: human UHRF1, PHD, residues 307–366; also called plant homeodomain; the isolated PHD
**Q.** Which Kd [6] does the source give for B10 here?
**A.** 26.7 µM

**Q.** Does TGKGKWKRKSAGGGPSRAGSPRRTSKKTKVEPY (domain or fragment, human, UniProt Q96T88 642-674, looked up) [Spacer^642–674] bind [4]?
**A.** binds

**Q.** With MVDNPMRRKSGPSCKHCK (peptide, UniProt Q96T88 289-306, looked up, also called the Linker) [Linker peptide (289–306)] as the binder, how does the Kd [4] read?
**A.** 24 µM

B11: Spacer^Δ660–664 (domain or fragment, human, UniProt Q96T88 587-674, looked up)
chain: PGPWTKEGKDRIKKLGLTMQYPEGYLEALANREREKENSKREEEEQQEGGFASPRTGKGKWKRKSAGGGPSRATSKKTKVEPY
**Q.** Does B11 bind [4]?
**A.** binds

B12: Spacer^Δ665–669 (domain or fragment, human, UniProt Q96T88 587-674, looked up)
chain: PGPWTKEGKDRIKKLGLTMQYPEGYLEALANREREKENSKREEEEQQEGGFASPRTGKGKWKRKSAGGGPSRAGSPRRKVEPY
**Q.** Does B12 bind [4]?
**A.** binds

B13: Spacer^Δ670–674 (domain or fragment, human, UniProt Q96T88 587-674, looked up)
chain: PGPWTKEGKDRIKKLGLTMQYPEGYLEALANREREKENSKREEEEQQEGGFASPRTGKGKWKRKSAGGGPSRAGSPRRTSKKT
**Q.** Does B13 bind [4]?
**A.** binds

B14: Spacer^Δ650–654 (domain or fragment, human, UniProt Q96T88 587-674, looked up)
chain: PGPWTKEGKDRIKKLGLTMQYPEGYLEALANREREKENSKREEEEQQEGGFASPRTGKGKWKRGPSRAGSPRRTSKKTKVEPY
**Q.** Does B14 bind [4]?
**A.** binds

B15: Spacer^Δ655–659 (domain or fragment, human, UniProt Q96T88 587-674, looked up)
chain: PGPWTKEGKDRIKKLGLTMQYPEGYLEALANREREKENSKREEEEQQEGGFASPRTGKGKWKRKSAGGGSPRRTSKKTKVEPY
**Q.** Does B15 bind [4]?
**A.** binds

B16: GST-tagged TTD–PHD of UHRF1 (domain or fragment, human, UniProt Q96T88 134-366, looked up)
chain: LYKVNEYVDARDTNMGAWFEAQVVRVTRKAPSRDEPCSSTSRPALEEDVIYHVKYDDYPENGVVQMNSRDVRARARTIIKWQDLEVGQVVMLNYNPDNPKERGFWYDAEISRKRETRTARELYANVVLGDDSLNDCRIIFVDEVFKIERPGEGSPMVDNPMRRKSGPSCKHCKDDVNRLCRVCACHLCGGRQDPDKQLMCDECDMAFHIYCLDPPLSSVPSEDEWYCPECRND
notes: also called GST-TTD–PHD
**Q.** Does B16 bind [7]?
**A.** binds

**Q.** Does B17 bind [2]?
**A.** binds

B18: GST-tagged TTD of UHRF1 (domain or fragment, human, UniProt Q96T88 134-285, looked up)
chain: LYKVNEYVDARDTNMGAWFEAQVVRVTRKAPSRDEPCSSTSRPALEEDVIYHVKYDDYPENGVVQMNSRDVRARARTIIKWQDLEVGQVVMLNYNPDNPKERGFWYDAEISRKRETRTARELYANVVLGDDSLNDCRIIFVDEVFKIERPGE
notes: pGEX-6p-1 derivative vector; also called GST-TTD
**Q.** Does B18 bind [7]?
**A.** binds
